The source of these data is the supplement of paper PMC9170038.

The data set deals with MS2 coat protein. The experiment in a line: apparent KD of MS2 coat protein; higher = weaker reporter binding. The settings on record: Eterna round: R107. Summed up:
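Apparent KD stands for the median, per design, of fits to normalised cluster binding curves. The curves came from titrating on-chip-transcribed RNA switches on Illumina sequencing clusters with SNAP-549-labelled MS2 coat protein, twofold from 0.7 or 1.5 nM to 3 µM. Buffer was 100 mM Tris-HCl pH 7.5, 80 mM KCl, 4 mM MgCl2, without or with constant ligand.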

[1] abbreviates: input ligand: theophylline 20 uM.
[2] abbreviates: input ligand: tryptophan 2.4 mM.
[3] abbreviates: input ligand: theophylline 2 mM.

In the case of “ACCGCAGGUCCUGAUACCAGAGACAUGAGGAUCACCCAUGUCCGAUCGUCCUGCCUCAGGCUCCCUUGGCAGCAGGGCUUGUCCU [Exclusion Theophylline B GF8]”, the “apparent KD of MS2 coat protein” value reads like this: (input ligand: arginine 13.2 mM) 14.1 nM; under setting [1], 20.6 nM; under setting [2], 14.8 nM.

For the sequence “UGUAUGUGAUCUGAUACCAGUCCAACUGGUAAAGCAUGAGGAUCACCCAUGUAAAAUUGGGACCCUUGGCAGCAGAUCGCAUACU”, the “apparent KD of MS2 coat protein” value by setting is: (input ligand: arginine 13.2 mM) 146 nM; (input ligand: none) 166 nM; under setting [1], 190 nM; under setting [3], 316 nM; under setting [2], 138 nM.

Turning to “UACAUGAGGAUCACCCAUGUCUGAACUGAAGGAGCGCUAAACAAGGCAGGUAGGUCGCGGAAUUUUGUGUGCAUAUGCAUAUGGG [9.K]”, the “apparent KD of MS2 coat protein” value reads like this: (input ligand: arginine 13.2 mM) 23.6 nM; (input ligand: none) 30.6 nM; under setting [1], 46.7 nM; under setting [3], 36.5 nM; under setting [2], 31.1 nM.

With “UAUCCACAUGAGGAUCACCCAUGUAAGGAAGGAGCGGUGAAUGCACCAGGUAGGUCGCCUUGCUGAGGACUGUCGGUGGAUUCGU [Exclusion - Arginine A (Freestyle 22)]”, the “apparent KD of MS2 coat protein” value turned out to be 26.8 nM (input ligand: arginine 13.2 mM); 32.8 nM (input ligand: none); 43.2 nM under setting [1]; 39.5 nM under setting [3]; 32 nM under setting [2].

Turning to “AGUAUCAGUGGAAGGAGCGUCGCGACUGCUACAUGAGGAUCACCCAUGUCGCCUUGAGCGCGACAGGUAGGUCGCCACGGUAGGC [SS-ArgB1]”, the “apparent KD of MS2 coat protein” value (input ligand: arginine 13.2 mM) is 28.6 nM; the “apparent KD of MS2 coat protein” value (input ligand: none) stood at 49.6 nM; the “apparent KD of MS2 coat protein” value under setting [1] was 68.8 nM; the “apparent KD of MS2 coat protein” value under setting [3] worked out at 72.1 nM; the “apparent KD of MS2 coat protein” value under setting [2] was 40.3 nM.

In the case of “UACUUGCUGACGGCCGCCACUAGAACAUGAGGAUCACCCAUGUACCUGGUCCUUCAUGGGUGGACUAGGACCGGGUCAGCAAGAU [(Trp1)-(Ms2)-(T)'-(M)'-(Trp2)_Design4]”, the “apparent KD of MS2 coat protein” value was found to be 186 nM (input ligand: arginine 13.2 mM), 418 nM under setting [1] and 517 nM under setting [3].

In the case of “AGAUUCGACACGGCCGCCACUUGUGGUGGAUUAUCCUAUGUAAGACAUGAGGAUCACCCAUGUACAAGGACCGGGUGUUGAGUCU [XTryp B #22]”, the “apparent KD of MS2 coat protein” value (input ligand: arginine 13.2 mM) is 108 nM, the “apparent KD of MS2 coat protein” value under setting [1] is 336 nM and the “apparent KD of MS2 coat protein” value under setting [3] came out at 385 nM.

With “CUAUGUAUAUAUGCGAAAGCUACGUGUUGACGAGGACCGGUACGGCCGCCACUCGACAUGAGGAUCACCCAUGUAAUAUAUAUAG [BMP_BFE]”, the “apparent KD of MS2 coat protein” value worked out at 102 nM (input ligand: arginine 13.2 mM), 173 nM under setting [1] and 300 nM under setting [3].

“AUAACAUGAGGAUCACCCAUGUAGAGUGAUACCAGACUAUGUAAUGUCCCUUGGCAGCACAAGUAAAGUUAUAAAUAAUGAUAGA [JR_SSTheophyA_Sub001]”: the “apparent KD of MS2 coat protein” value by setting is: (input ligand: arginine 13.2 mM) 89.3 nM; under setting [1], 126 nM; under setting [2], 136 nM.

Consider “AGCCCGGGAGCGGCCGCCACUGGAGGCUUAGCGCGACAUGAGGAUCACCCAUGUGUGCCCGGCGUUAGGACCGGGCUCGCGUGGU [#1 Same State - Tryptophan B Attempt #22 (HarryS)]”, for which the “apparent KD of MS2 coat protein” value (input ligand: arginine 13.2 mM) was 15.3 nM; the “apparent KD of MS2 coat protein” value (input ligand: none) was determined as 31.2 nM; the “apparent KD of MS2 coat protein” value under setting [1] was determined as 52.7 nM; the “apparent KD of MS2 coat protein” value under setting [3] turned out to be 46.1 nM; the “apparent KD of MS2 coat protein” value under setting [2] was 35.2 nM.

For the sequence “ACAUGAGGAUCACCCAUGUAUUGAGCCGAAGGAGCGGCAGGUAUGCCAGGUAGGUCGCGGUUAGAGUAGAUUGAUGUUCUUUUGU [Exclusion - Arginine A / B]”, the “apparent KD of MS2 coat protein” value reads like this: (input ligand: arginine 13.2 mM) 12.3 nM; (input ligand: none) 12.7 nM; under setting [1], 14.8 nM; under setting [3], 16.3 nM; under setting [2], 12.4 nM.

Regarding “GACAUGAGGAUCACCCAUGUUUGCUAUGAAGGAGCGUCGGAAAUGACAGGUAGGUCGCAUAGUAGACCUUGUAUUUCGUGUGUUU [#01 Exclusion - Arginine A]”, the “apparent KD of MS2 coat protein” value was determined as 10.8 nM (input ligand: arginine 13.2 mM); 10.8 nM (input ligand: none); 14.5 nM under setting [1]; 11.2 nM under setting [3]; 12 nM under setting [2].

As for “UCUAGGCUCGGAAACGAGCCUAGUACAGAAGGAGCGUGGAUUAACACAGGUAGGUCGCUGACAUGAGGAUCACCCAUGUAUUAUU [SSAA #3]”, the “apparent KD of MS2 coat protein” value is 32.5 nM (input ligand: arginine 13.2 mM); 24.3 nM (input ligand: none); 38 nM under setting [1]; 31 nM under setting [3]; 27.7 nM under setting [2].

Regarding “GCACGAGUAAGACCUGACUUCAACAAUGAUACCAGACUAGUAAACGUCCCUUGGCAGCAUCAGACAUGAGGAUCACCCAUGUGGC [theeternabot_exclusion_MS2_Theo_A_44]”, the “apparent KD of MS2 coat protein” value amounted to 26.4 nM (input ligand: arginine 13.2 mM), 39.1 nM under setting [1] and 34.3 nM under setting [2].

Regarding “AAAUAAAUACAUGAGGAUCACCCAUGUGAAGGAGCGGCCGUUAGGCCAGGUAGGUCGCACAUGAAAGGGAAGCGAAAGAAAUAAU [MAT - Exclusion Arginine A - Mod of Eli - D7]”, the “apparent KD of MS2 coat protein” value reads like this: (input ligand: arginine 13.2 mM) 12.2 nM; (input ligand: none) 18.1 nM; under setting [1], 25.9 nM; under setting [3], 19 nM; under setting [2], 19.2 nM.
